What all share (experiment): BLI (Octet), F on anti-HIS tip, 20 nM mAb
Background: In BLI a coated tip is dipped into the sample, and binding shifts an interference pattern.

Experiment [1] deals with T1, RSV F protein mutant pXCS752 (RSV A2, UniProt P03420 26-109).
T1 chain 1: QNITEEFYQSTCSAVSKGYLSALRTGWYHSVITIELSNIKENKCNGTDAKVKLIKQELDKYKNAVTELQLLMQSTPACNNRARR
T1 chain 2: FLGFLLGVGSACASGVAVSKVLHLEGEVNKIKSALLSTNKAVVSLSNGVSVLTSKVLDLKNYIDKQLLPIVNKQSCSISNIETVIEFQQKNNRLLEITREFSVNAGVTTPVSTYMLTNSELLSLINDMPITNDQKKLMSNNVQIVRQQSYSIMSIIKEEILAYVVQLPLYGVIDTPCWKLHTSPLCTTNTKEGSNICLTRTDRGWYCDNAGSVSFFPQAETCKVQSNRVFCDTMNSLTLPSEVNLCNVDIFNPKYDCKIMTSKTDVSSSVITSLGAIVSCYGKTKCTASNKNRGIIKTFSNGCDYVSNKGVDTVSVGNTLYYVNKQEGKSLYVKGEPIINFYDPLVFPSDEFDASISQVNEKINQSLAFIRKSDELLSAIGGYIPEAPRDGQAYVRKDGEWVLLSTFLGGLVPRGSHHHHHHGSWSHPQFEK

Experiment [2] concerns the target RSV F protein mutant pXCS754 (RSV A2, UniProt P03420 26-109).
Experiment [3] has as its target T2, RSV F protein mutant pXCS785 (RSV A2, UniProt P03420 26-109).
T2 chain 1: T1 chain 1 with S30C, C78T
T2 chain 2: T1 chain 2 with C12I, L52C

Experiment [4] addresses T3, RSV F protein mutant pXCS855 (RSV A2, UniProt P03420 26-109).
T3 chain 1: T1 chain 1 with S30C, C78T
T3 chain 2: T1 chain 2 with C12I, L52C, S54I, I160V, D350S

The target of experiment [5] is T4, RSV F protein mutant pXCS858 (RSV A2, UniProt P03420 26-109).
T4 chain 1: T1 chain 1 with S30C, C78T
T4 chain 2: T1 chain 2 with C12I, L52C, S54I, D350S

Experiment [6] deals with T5, RSV F protein mutant pXCS738 (RSV A2, UniProt P03420 26-109).
T5 chain 1: T1 chain 1 with S30C, C78T
T5 chain 2: T1 chain 2 with L6C, C12I, L52C, N235C

Residue numbers refer to the chain shown, from its start.

B1: AM22 (antibody, V domains shown)
VH: QVQLVQSGAEVKKPGATVKVSCKISGHTLIKLSIHWVRQAPGKGLEWMGGYEGEVDEIFYAQKFQHRLTVIADTATDTVYMELGRLTSDDTAVYFCGTLGVTVTEAGLGIDDYWGQGTLVTVSS
VL: EIVLTQSPGTLSLSPGERATLSCRASQIVSRNHLAWYQQKPGQAPRLLIFGASSRATGIPVRFSGSGSGTDFTLTINGLAPEDFAVYYCLSSDSSIFTFGPGTKVDFK
For B1, the “Response (nm shift)” value in experiment [1] was 0.234 nm; in experiment [2], 0.298 nm; in experiment [3], 0.465 nm; in experiment [4], 0.523 nm; in experiment [5], 0.547 nm; in experiment [6] it was 0.273 nm.

B2: MPE8 (antibody, V domains shown)
VH: EVQLVESGGGLVKPGGSLRLSCAASGFTFSSYSMNWVRQAPGKGLEWVSSISASSSYSDYADSAKGRFTISRDNAKTSLFLQMNSLRAEDTAIYFCARARATGYSSITPYFDIWGQGTLVTVSS
VL: QSVVTQTPSVSGAPGQRVTISCTGSSSNIGAGYDVHWYQQLPGTAPKLLIYDNNNRPSGVPDRFSASKSGTSASLAITGLQAEDEADYYCQSYDRNLSGVFGTGTKVTVL
notes: also called MPEG
Consider B2, for which the “Response (nm shift)” value in experiment [1] came out at 0.703 nm; in experiment [2], 0.676 nm; in experiment [3] it was 0.937 nm; in experiment [4], 0.982 nm; in experiment [5], 1.06 nm; in experiment [6], 0.741 nm.

These data come from patent US20230218738A1 (Pfizer, published 2023).
